For the experiment, the target named is rabbit MAP kinase kinase (MAPKK) (rabbit) (UniProt P29678).

“ΔRaf-1 (human Raf-1 lacking the first 324 amino acids) (from UniProt P04049) (enzyme)” showed an MAPKK phosphorylation in S. pombe (32P-orthophosphate labelling, immunoprecipitation, phosphorimager) greater than 5 fold.

These data come from patent US5958721.
